Test results: patent US8652790B2, “Conformational entropy in molecular recognition” (The Trustees of the University of Pennsylvania, priority 2007, dated 2014)
Like-named read-outs stand apart in the source and are kept apart here.

Columns and labels:
[1] = biological target: T1, calcium-saturated calmodulin (CaM) (Homo sapiens, UniProt P0DP23); settings: cited from earlier work; for −TΔSbind: Binding entropy at 308 K (Table 3), values cited per Table 2 footnotes; for −TΔSbinding^total: ITC, 308 K, from Marlow & Wand or Frederick et al.
T1 construct: made in house

[2] = biological target: T1, calcium-saturated calmodulin (CaM); experiment: Deuterium NMR relaxation of methyl-bearing side chains of target domains bound to CaM; settings: residue L20 of the bound target domain
Text: Using deuterium NMR relaxation methods, fast motion of the methyl-bearing side-chains of the target domains in the six CaM complexes were examined. Muhandiram, D. R. et al., Measurement of H-2 T-1 and T-1p relaxation-times in uniformly C-13-Labeled and fractionally H-2-labeled proteins in solution. J. Am. Chem. Soc. 117, 11536-11544 (1995).
All bound target domain methyl resonances are well resolved in ^13C-single quantum heteronuclear correlation (^13C-HSQC) NMR spectra and deuterium relaxation parameters could be measured with high precision. The 76 methyl order parameters from 52 residues of the target domains in the six complexes are heterogeneously distributed with O^2axis values ranging from 0.13 to 0.95 (FIG. 5). […]
O^2axis parameters were determined from T1 and T1p deuterium relaxation (Muhandiram, D. R. et al. Measurement of H-2 T-1 and T-1p relaxation-times in uniformly C-13-Labeled and fractionally H-2-labeled proteins in solution. J. Am. Chem. Soc. 117, 11536-11544 (1995)) measured at two magnetic fields. Rotational correlation times and O^2NH were determined from ^15N relaxation (Farrow, N. A. et al. Backbone dynamics of a free and a phosphopeptide-complexed Src homology-2 domain studied by ^15N NMR relaxation. Biochemistry 33, 5984-6003 (1994)) obtained at two magnetic fields. O^2CαCO parameters were determined by transverse cross-correlated relaxation. […]

[3] = biological target: T1, calcium-saturated calmodulin (CaM); experiment: Isothermal titration calorimetry of target domain peptides binding to calcium-saturated calmodulin; settings: for −TΔSbind: Binding entropy at 308 K (Table 3); for −TΔSbinding^total: ITC, 308 K, pH 6.5, 100 mM KCl, 6 mM CaCl2, standard errors
Text: NMR methods are herein used to determine the dynamic response of human CaM (GenBank AAD45181) to the binding of six peptides representing the calmodulin-binding domains of the smooth muscle myosin light chain kinase (smMLCK; AAA69964) (Lukas, T. J. et al. Calmodulin binding domains: characterization of a phosphorylation and calmodulin binding site from myosin light chain kinase. Biochemistry 25, 1458-1464 (1986)), the neuronal and endothelial nitric oxide synthases (nNOS and eNOS; AAB60654 and AAH63294, respectively) (Zhang, M. & Vogel, H. J. Characterization of the calmodulin-binding domain of rat cerebellar nitric oxide synthase. J. Biol. Chem. 269, 981-985 (1994)), the calmodulin kinase kinase (CaMKKα; EDM05132) (Tokumitsu, H. et al. Calcium/calmodulin-dependent protein kinase kinase: identification of regulatory domains. Biochemistry 36, 12823-12827 (1997)), the calmodulin kinase I (CaMKI; EAW63990) Goldberg, J., Nairn, A. C. & Kuriyan, J. Structural basis for the autoinhibition of calcium/calmodulin-dependent protein kinase I. Cell 84, 875-887 (1996)) and the phosphodiesterase (PDE; AAD40738 (SEQ ID NO: 8)) Goldberg, J., Nairn, A. C. & Kuriyan, J. Structural basis for the autoinhibition of calcium/calmodulin-dependent protein kinase I. Cell 84, 875-887 (1996)).
Four of the peptides have been found previously by isothermal titration calorimetry to have roughly the same affinity for calmodulin but with widely different thermodynamic parameters defining the free energy of association. Wintrode, P. L. & Privalov, P. L. Energetics of target peptide recognition by calmodulin: a calorimetric study. […] J. Biol. Chem. 276, 14083-14091 (2001). The present study repeats isothermal titration calorimetry measurements at a temperature (35° C.) that is more optimal for solution NMR spectroscopy, and characterizes the thermodynamics of binding of two additional domains (FIG. 1). Shown in FIG. 1 are the Gibbs free energy (ΔG), enthalpy (ΔH) and entropy (−TΔS) for the formation of the six calcium-saturated CaM-peptide complexes at 35° C., as determined by isothermal titration calorimetry.
Calmodulin and synthetic peptides and complexes were prepared as described previously (Kranz, J. K. et al. A direct test of the reductionist approach to structural studies of calmodulin activity: relevance of peptide models of target proteins. J. Biol. Chem. 277, 16351-16354 (2002)) in 20 mM imidazole (pH 6.5), 100 mM KCl, 6 mM CaCl2 and 0.02% (w/v) NaN3. NMR samples were slightly (˜10%) over-titrated with peptide to ensure full complex formation. […] Data were obtained with a VP-isothermal titration calorimeter (Microcal) and analysed with the Origin (v.5) software.

Row | O^2axis [2] | Substance | −TΔSbind [1] | −TΔSbinding^total [1] | −TΔSbind [3] | −TΔSbinding^total [3]
1 | – | (COOH-FPNGFSRKRLMSKVLIVTTWSPLL [CaMKKα(p)] | +90.0 ± 1.0 kJ/mol | +90.0 ± 1.0 kJ/mol | – | –
2 | – | AKSKWKQAFNATAVVRHMRKLQ (listed as Homo sapiens) [CaMKI(p)] | +69.6 ± 0.9 kJ/mol | +69.6 ± 0.9 kJ/mol | – | –
3 | 0.165 | QTEKMWQRLKGILRSLVKQ [PDE(p)] | – | – | +33.9 ± 0.7 kJ/mol | +33.9 ± 0.7 kJ/mol
4 | – | RKKTFKEVANAVKISASLMG [eNOS(p)] | – | – | +25.7 ± 0.8 kJ/mol | +25.7 ± 0.8 kJ/mol
